Where a chain is given by its changes, count along the chain named.
B1: DVD3099 (bispecific antibody, IgG1)
VH: EVQLVQSGAEVKKPGASVKVSCKASGYTFTTYGVSWVRQAPGQGLEWMGEIYPGNYNTYYNEKFRGRVTMTTDTSTSTAYMELRSLRSDDTAVYYCARWRTSYFSDYGYFDYWGQGTTVTVSSASTKGPEVQLVESGGGLVQPGGSLRLSCAASGFTFSNYGVEWVRQAPGKGLEWVSGIWADGSTHYADTVKSRFTISRDNSKNTLYLQMNSLRAEDTAVYYCAREWQHGPVAYWGQGTLVTVSS
VL: DVVMTQSPLSLPVTLGQPASISCRSSQSLVHSHGNTYLHWYQQRPGQSPRLLIYTVSNRFSGVPDRFSGSGSGTDFTLKISRVEAEDVGVYYCSQSTHVPYTFGGGTKVEIKRTVAAPDIQMTQSPSSLSASVGDRVTITCKASQLVSSAVAWYQQKPGKAPKLLIYWASTLHTGVPSRFSGSGSGTDFTLTISSLQPEDFATYYCQQHYRTPFTFGQGTKLEIKR
B2: DVD3102 (bispecific antibody, IgG1)
VH: EVQLVQSGAEVKKPGASVKVSCKASGYTFTTYGVSWVRQAPGQGLEWMGEIYPGNYNTYYNEKFRGRVTMTTDTSTSTAYMELRSLRSDDTAVYYCARWRTSYFSDYGYFDYWGQGTTVTVSSASTKGPSVFPLAPEVQLVESGGGLVQPGGSLRLSCAASGFTFSNYGVEWVRQAPGKGLEWVSGIWADGSTHYADTVKSRFTISRDNSKNTLYLQMNSLRAEDTAVYYCAREWQHGPVAYWGQGTLVTVSS
VL: B1 VL
B3: DVD3101 (bispecific antibody, IgG1)
VH: B1 VH
VL: DVVMTQSPLSLPVTLGQPASISCRSSQSLVHSHGNTYLHWYQQRPGQSPRLLIYTVSNRFSGVPDRFSGSGSGTDFTLKISRVEAEDVGVYYCSQSTHVPYTFGGGTKVEIKRTVAAPSVFIFPPDIQMTQSPSSLSASVGDRVTITCKASQLVSSAVAWYQQKPGKAPKLLIYWASTLHTGVPSRFSGSGSGTDFTLTISSLQPEDFATYYCQQHYRTPFTFGQGTKLEIKR
B4: DVD3104 (bispecific antibody, IgG1)
VH: EVQLVQSGAEVKKPGASVKVSCKASGYTFANYGIIWVRQAPGQGLEWMGWINTYTGKPTYAQKFQGRVTMTTDTSTSTAYMELSSLRSEDTAVYYCARKLFTTMDVTDNAMDYWGQGTTVTVSSASTKGPEVQLVESGGGLVQPGGSLRLSCAASGFTFSNYGVTWVRQAPGKGLEWVSMIWADGSTHYASSVKGRFTISRDNSKNTLYLQMNSLRAEDTAVYYCAREWQHGPVAYWGQGTLVTVSS
VL: DIQMTQSPSSLSASVGDRVTITCRASQDISQYLNWYQQKPGKAPKLLIYYTSRLQSGVPSRFSGSGSGTDFTLTISSLQPEDFATYFCQQGNTWPPTFGQGTKLEIKRTVAAPDIQMTQSPSSLSASVGDRVTITCRASQLVSSAVAWYQQKPGKAPKLLIYWASARHTGVPSRFSGSGSGTDFTLTISSLQPEDFATYYCQQHYKTPFTFGQGTKLEIKR
B5: DVD3117 (bispecific antibody, IgG1)
VH: EVQLVQSGAEVKKPGASVKVSCKASGYTFNNYGIIWVRQAPGQGLEWMGWINTYTGKPTYAQKFQGRVTMTTDTSTSTAYMELSSLRSEDTAVYYCARKLFNTVAVTDNAMDYWGQGTTVTVSSASTKGPSVFPLAPEVQLVESGGGLVQPGGSLRLSCAASGFTFSNYGVTWVRQAPGKGLEWVSMIWADGSTHYASSVKGRFTISRDNSKNTLYLQMNSLRAEDTAVYYCAREWQHGPVAYWGQGTLVTVSS
VL: B4 VL with S30E, Q31N, W94Q
B6: DVD3103 (bispecific antibody, IgG1)
VH: EVQLVQSGAEVKKPGASVKVSCKASGYTFANYGIIWVRQAPGQGLEWMGWINTYTGKPTYAQKFQGRVTMTTDTSTSTAYMELSSLRSEDTAVYYCARKLFTTMDVTDNAMDYWGQGTTVTVSSGGGGSGGGGSEVQLVESGGGLVQPGGSLRLSCAASGFTFSNYGVTWVRQAPGKGLEWVSMIWADGSTHYASSVKGRFTISRDNSKNTLYLQMNSLRAEDTAVYYCAREWQHGPVAYWGQGTLVTVSS
VL: DIQMTQSPSSLSASVGDRVTITCRASQDISQYLNWYQQKPGKAPKLLIYYTSRLQSGVPSRFSGSGSGTDFTLTISSLQPEDFATYFCQQGNTWPPTFGQGTKLEIKRGGSGGGGSGDIQMTQSPSSLSASVGDRVTITCRASQLVSSAVAWYQQKPGKAPKLLIYWASARHTGVPSRFSGSGSGTDFTLTISSLQPEDFATYYCQQHYKTPFTFGQGTKLEIKR
B7: DVD3108 (bispecific antibody, IgG1)
VH: EVQLVQSGAEVKKPGASVKVSCKASGYTFTTYGVSWVRQAPGQGLEWMGEIYPGNYNTYYNEKFRGRVTMTTDTSTSTAYMELRSLRSDDTAVYYCARWRTSYFSDYGYFDYWGQGTTVTVSSGGGGSGGGGSEVQLVQSGAEVKKPGASVKVSCKASGYTFANYGIIWVRQAPGQGLEWMGWINTYTGKPTYAQKFQGRVTMTTDTSTSTAYMELSSLRSEDTAVYYCARKLFTTMDVTDNAMDYWGQGTTVTVSS
VL: DVVMTQSPLSLPVTLGQPASISCRSSQSLVHSHGNTYLHWYQQRPGQSPRLLIYTVSNRFSGVPDRFSGSGSGTDFTLKISRVEAEDVGVYYCSQSTHVPYTFGGGTKVEIKRGGSGGGGSGDIQMTQSPSSLSASVGDRVTITCRASQDISQYLNWYQQKPGKAPKLLIYYTSRLQSGVPSRFSGSGSGTDFTLTISSLQPEDFATYFCQQGNTWPPTFGQGTKLEIKR
B8: DVD3118 (bispecific antibody, IgG1)
VH: B7 VH with A163N, T235N, M237V, D238A
VL: B7 VL with S152E, Q153N, W216Q
B9: DVD3109 (bispecific antibody, IgG1)
VH: EVQLVQSGAEVKKPGASVKVSCKASGYTFTTYGVSWVRQAPGQGLEWMGEIYPGNYNTYYNEKFRGRVTMTTDTSTSTAYMELRSLRSDDTAVYYCARWRTSYFSDYGYFDYWGQGTTVTVSSASTKGPEVQLVQSGAEVKKPGASVKVSCKASGYTFANYGIIWVRQAPGQGLEWMGWINTYTGKPTYAQKFQGRVTMTTDTSTSTAYMELSSLRSEDTAVYYCARKLFTTMDVTDNAMDYWGQGTTVTVSS
VL: DVVMTQSPLSLPVTLGQPASISCRSSQSLVHSHGNTYLHWYQQRPGQSPRLLIYTVSNRFSGVPDRFSGSGSGTDFTLKISRVEAEDVGVYYCSQSTHVPYTFGGGTKVEIKRTVAAPDIQMTQSPSSLSASVGDRVTITCRASQDISQYLNWYQQKPGKAPKLLIYYTSRLQSGVPSRFSGSGSGTDFTLTISSLQPEDFATYFCQQGNTWPPTFGQGTKLEIKR
B10: DVD3111 (bispecific antibody, IgG1)
VH: B9 VH
VL: DVVMTQSPLSLPVTLGQPASISCRSSQSLVHSHGNTYLHWYQQRPGQSPRLLIYTVSNRFSGVPDRFSGSGSGTDFTLKISRVEAEDVGVYYCSQSTHVPYTFGGGTKVEIKRTVAAPSVFIFPPDIQMTQSPSSLSASVGDRVTITCRASQDISQYLNWYQQKPGKAPKLLIYYTSRLQSGVPSRFSGSGSGTDFTLTISSLQPEDFATYFCQQGNTWPPTFGQGTKLEIKR
B11: DVD3112 (bispecific antibody, IgG1)
VH: EVQLVQSGAEVKKPGASVKVSCKASGYTFTTYGVSWVRQAPGQGLEWMGEIYPGNYNTYYNEKFRGRVTMTTDTSTSTAYMELRSLRSDDTAVYYCARWRTSYFSDYGYFDYWGQGTTVTVSSASTKGPSVFPLAPEVQLVQSGAEVKKPGASVKVSCKASGYTFANYGIIWVRQAPGQGLEWMGWINTYTGKPTYAQKFQGRVTMTTDTSTSTAYMELSSLRSEDTAVYYCARKLFTTMDVTDNAMDYWGQGTTVTVSS
VL: B9 VL
B12: DVD3098 (bispecific antibody, IgG1)
VH: EVQLVQSGAEVKKPGASVKVSCKASGYTFTTYGVSWVRQAPGQGLEWMGEIYPGNYNTYYNEKFRGRVTMTTDTSTSTAYMELRSLRSDDTAVYYCARWRTSYFSDYGYFDYWGQGTTVTVSSGGGGSGGGGSEVQLVESGGGLVQPGGSLRLSCAASGFTFSNYGVEWVRQAPGKGLEWVSGIWADGSTHYADTVKSRFTISRDNSKNTLYLQMNSLRAEDTAVYYCAREWQHGPVAYWGQGTLVTVSS
VL: DVVMTQSPLSLPVTLGQPASISCRSSQSLVHSHGNTYLHWYQQRPGQSPRLLIYTVSNRFSGVPDRFSGSGSGTDFTLKISRVEAEDVGVYYCSQSTHVPYTFGGGTKVEIKRGGSGGGGSGDIQMTQSPSSLSASVGDRVTITCKASQLVSSAVAWYQQKPGKAPKLLIYWASTLHTGVPSRFSGSGSGTDFTLTISSLQPEDFATYYCQQHYRTPFTFGQGTKLEIKR

What follows are binders tested against Recombinant Human TNF-α/TNFSF1A (human, UniProt P01375 77-233) (assay: cell-based or functional assay).
Recombinant Human TNF-α/TNFSF1A, sequence (P01375 77-233 limits assumed): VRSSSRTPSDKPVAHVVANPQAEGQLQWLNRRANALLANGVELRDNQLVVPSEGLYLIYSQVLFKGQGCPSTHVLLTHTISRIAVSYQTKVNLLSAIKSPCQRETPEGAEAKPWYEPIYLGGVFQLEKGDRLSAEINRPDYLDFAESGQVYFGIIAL

N-Terminal VD huTNFα Neutralization Assay IC50 [nM] | C-Terminal VD huTNFα Neutralization Assay IC50 [nM] | Binder
0.003 | – | B1
– | 0.294 | B2
– | 0.308 | B3
0.033 | – | B4
1.96 | – | B5
0.016 | – | B6
– | 0.183 | B7
– | 0.065 | B8
– | 0.731 | B9
– | 0.146 | B10
– | 0.387 | B11
0.012 | – | B12
